*1 amine or outer side, *2 acyl side, *3 side chain or, on linkers, in order; H or OH if unused. Side-chain parts run from the residue outwards. The star is where a group is joined. C18 diacid = O=C(O)CCCCCCCCCCCCCCCCC(=O)*; γGlu = O=C(O)[C@H](CCC(=O)[*:2])N[*:1]; Isovaleryl = CC(C)CC(=O)*; AEEA = NCCOCCOCC(=O)O
T1: human neuropeptide Y2 receptor (human, UniProt P49146 1-381)
T1 construct: whole, on cells; also called hNPY2 receptor; hNPY2-R
T1 sequence (looked up): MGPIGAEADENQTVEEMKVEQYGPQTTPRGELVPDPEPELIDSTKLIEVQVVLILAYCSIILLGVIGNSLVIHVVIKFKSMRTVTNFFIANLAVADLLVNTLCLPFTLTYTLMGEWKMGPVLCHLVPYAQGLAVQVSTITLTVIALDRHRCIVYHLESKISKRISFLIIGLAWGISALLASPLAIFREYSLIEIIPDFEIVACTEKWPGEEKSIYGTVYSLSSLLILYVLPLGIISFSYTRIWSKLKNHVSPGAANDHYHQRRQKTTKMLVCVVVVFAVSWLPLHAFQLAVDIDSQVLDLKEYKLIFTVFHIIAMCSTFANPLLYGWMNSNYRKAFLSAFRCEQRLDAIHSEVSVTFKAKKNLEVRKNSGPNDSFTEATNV


Biological target: T1, human neuropeptide Y2 receptor
Assay: radioligand competition (125I-PYY(1-36)), hNPY2R membranes
Experimental: The filtration RLB assay was carried out in 96-well plates in a final volume of 100 μl per well. Freeze-dried test peptides were dissolved in 100% dimethyl sulfoxide (DMSO) to stock solutions of 1 mM and serial dilutions were performed in assay buffer (50 mM HEPES, 5 mM MgCl₂, 1 mM CaCl₂, pH 7.4) containing 0.2% ovalbumin. […] Next, 80 μL membranes (HTS066M, ChemiSCREEN™ Human Neuropeptide Y2 Receptor Membrane Preparation, CHEMICON) were added to each well to give a final protein concentration of 0.5 μg/well. The plates were sealed and incubated at room temperature for 2 hours in a plate shaker set at 400 rpm. The incubation was stopped by vacuum filtration onto 0.5% poly-ethylene amine (PEI) presoaked GF/C filters using a 96-well FilterMate™ harvester (Perkin Elmer) followed by four washes with 300 μl/well ice-cold wash buffer (50 mM HEPES, 500 mM NaCl, pH7.4). Filter plates were then dried for 60 min at room temperature and the bottom of the plates was sealed with backing tape UniFilter-96. Finally, 50 μl/well scintillation counter cocktail (Microscint20, Packard) was added and the radioactivity was counted in the Packard TopCount NXT scintillation counter. IC₅₀ values (the half maximal inhibitory concentration of the agonist) were calculated by nonlinear regression analysis of sigmoidal dose-response curves.

Row | Ki [nM] | Binder
1 | 3.09 | Isovaleryl-APEK([AEEA-AEEA-γGlu-C18 diacid])PEEDASPEETQRYYVTLRHYYNWLTRQRY-NH2 (SMILES CC(C)CC(=O)N[C@@H](C)C(=O)N1CCC[C@H]1C(=O)N[C@@H](CCC(=O)O)C(=O)N[C@@H](CCCCNC(=O)COCCOCCNC(=O)COCCOCCNC(=O)CC[C@H](NC(=O)CCCCCCCCCCCCCCCCC(=O)O)C(=O)O)C(=O)N1CCC[C@H]1C(=O)N[C@@H](CCC(=O)O)C(=O)N[C@@H](CCC(=O)O)C(=O)N[C@@H](CC(=O)O)C(=O)N[C@@H](C)C(=O)N[C@@H](CO)C(=O)N1CCC[C@H]1C(=O)N[C@@H](CCC(=O)O)C(=O)N[C@@H](CCC(=O)O)C(=O)N[C@H](C(=O)N[C@@H](CCC(N)=O)C(=O)N[C@@H](CCCNC(=N)N)C(=O)N[C@@H](Cc1ccc(O)cc1)C(=O)N[C@@H](Cc1ccc(O)cc1)C(=O)N[C@H](C(=O)N[C@H](C(=O)N[C@@H](CC(C)C)C(=O)N[C@@H](CCCNC(=N)N)C(=O)N[C@@H](Cc1c[nH]cn1)C(=O)N[C@@H](Cc1ccc(O)cc1)C(=O)N[C@@H](Cc1ccc(O)cc1)C(=O)N[C@@H](CC(N)=O)C(=O)N[C@@H](Cc1c[nH]c2ccccc12)C(=O)N[C@@H](CC(C)C)C(=O)N[C@H](C(=O)N[C@@H](CCCNC(=N)N)C(=O)N[C@@H](CCC(N)=O)C(=O)N[C@@H](CCCNC(=N)N)C(=O)N[C@@H](Cc1ccc(O)cc1)C(N)=O)[C@@H](C)O)[C@@H](C)O)C(C)C)[C@@H](C)O) [Compound 16]
2 | 1.52 | Isovaleryl-APEK([AEEA-AEEA-γGlu-C18 diacid])PEEDASPEELQKYYVSLRHYYNWLTRQRY-NH2 (SMILES CC(C)CC(=O)N[C@@H](C)C(=O)N1CCC[C@H]1C(=O)N[C@@H](CCC(=O)O)C(=O)N[C@@H](CCCCNC(=O)COCCOCCNC(=O)COCCOCCNC(=O)CC[C@H](NC(=O)CCCCCCCCCCCCCCCCC(=O)O)C(=O)O)C(=O)N1CCC[C@H]1C(=O)N[C@@H](CCC(=O)O)C(=O)N[C@@H](CCC(=O)O)C(=O)N[C@@H](CC(=O)O)C(=O)N[C@@H](C)C(=O)N[C@@H](CO)C(=O)N1CCC[C@H]1C(=O)N[C@@H](CCC(=O)O)C(=O)N[C@@H](CCC(=O)O)C(=O)N[C@@H](CC(C)C)C(=O)N[C@@H](CCC(N)=O)C(=O)N[C@@H](CCCCN)C(=O)N[C@@H](Cc1ccc(O)cc1)C(=O)N[C@@H](Cc1ccc(O)cc1)C(=O)N[C@H](C(=O)N[C@@H](CO)C(=O)N[C@@H](CC(C)C)C(=O)N[C@@H](CCCNC(=N)N)C(=O)N[C@@H](Cc1c[nH]cn1)C(=O)N[C@@H](Cc1ccc(O)cc1)C(=O)N[C@@H](Cc1ccc(O)cc1)C(=O)N[C@@H](CC(N)=O)C(=O)N[C@@H](Cc1c[nH]c2ccccc12)C(=O)N[C@@H](CC(C)C)C(=O)N[C@H](C(=O)N[C@@H](CCCNC(=N)N)C(=O)N[C@@H](CCC(N)=O)C(=O)N[C@@H](CCCNC(=N)N)C(=O)N[C@@H](Cc1ccc(O)cc1)C(N)=O)[C@@H](C)O)C(C)C) [Compound 21]
3 | 2.22 | Isovaleryl-APEK([AEEA-AEEA-γGlu-C18 diacid])PEEDASPEELQRYYVSLRKYYNWLTRQRY-NH2 (SMILES CC(C)CC(=O)N[C@@H](C)C(=O)N1CCC[C@H]1C(=O)N[C@@H](CCC(=O)O)C(=O)N[C@@H](CCCCNC(=O)COCCOCCNC(=O)COCCOCCNC(=O)CC[C@H](NC(=O)CCCCCCCCCCCCCCCCC(=O)O)C(=O)O)C(=O)N1CCC[C@H]1C(=O)N[C@@H](CCC(=O)O)C(=O)N[C@@H](CCC(=O)O)C(=O)N[C@@H](CC(=O)O)C(=O)N[C@@H](C)C(=O)N[C@@H](CO)C(=O)N1CCC[C@H]1C(=O)N[C@@H](CCC(=O)O)C(=O)N[C@@H](CCC(=O)O)C(=O)N[C@@H](CC(C)C)C(=O)N[C@@H](CCC(N)=O)C(=O)N[C@@H](CCCNC(=N)N)C(=O)N[C@@H](Cc1ccc(O)cc1)C(=O)N[C@@H](Cc1ccc(O)cc1)C(=O)N[C@H](C(=O)N[C@@H](CO)C(=O)N[C@@H](CC(C)C)C(=O)N[C@@H](CCCNC(=N)N)C(=O)N[C@@H](CCCCN)C(=O)N[C@@H](Cc1ccc(O)cc1)C(=O)N[C@@H](Cc1ccc(O)cc1)C(=O)N[C@@H](CC(N)=O)C(=O)N[C@@H](Cc1c[nH]c2ccccc12)C(=O)N[C@@H](CC(C)C)C(=O)N[C@H](C(=O)N[C@@H](CCCNC(=N)N)C(=O)N[C@@H](CCC(N)=O)C(=O)N[C@@H](CCCNC(=N)N)C(=O)N[C@@H](Cc1ccc(O)cc1)C(N)=O)[C@@H](C)O)C(C)C) [Compound 24]
4 | 0.39 | Isovaleryl-APEK([AEEA-AEEA-γGlu-C18 diacid])PEADASPEELQQYYVSLRHYYNWLTRQRY-NH2 (SMILES CC(C)CC(=O)N[C@@H](C)C(=O)N1CCC[C@H]1C(=O)N[C@@H](CCC(=O)O)C(=O)N[C@@H](CCCCNC(=O)COCCOCCNC(=O)COCCOCCNC(=O)CC[C@H](NC(=O)CCCCCCCCCCCCCCCCC(=O)O)C(=O)O)C(=O)N1CCC[C@H]1C(=O)N[C@@H](CCC(=O)O)C(=O)N[C@@H](C)C(=O)N[C@@H](CC(=O)O)C(=O)N[C@@H](C)C(=O)N[C@@H](CO)C(=O)N1CCC[C@H]1C(=O)N[C@@H](CCC(=O)O)C(=O)N[C@@H](CCC(=O)O)C(=O)N[C@@H](CC(C)C)C(=O)N[C@@H](CCC(N)=O)C(=O)N[C@@H](CCC(N)=O)C(=O)N[C@@H](Cc1ccc(O)cc1)C(=O)N[C@@H](Cc1ccc(O)cc1)C(=O)N[C@H](C(=O)N[C@@H](CO)C(=O)N[C@@H](CC(C)C)C(=O)N[C@@H](CCCNC(=N)N)C(=O)N[C@@H](Cc1c[nH]cn1)C(=O)N[C@@H](Cc1ccc(O)cc1)C(=O)N[C@@H](Cc1ccc(O)cc1)C(=O)N[C@@H](CC(N)=O)C(=O)N[C@@H](Cc1c[nH]c2ccccc12)C(=O)N[C@@H](CC(C)C)C(=O)N[C@H](C(=O)N[C@@H](CCCNC(=N)N)C(=O)N[C@@H](CCC(N)=O)C(=O)N[C@@H](CCCNC(=N)N)C(=O)N[C@@H](Cc1ccc(O)cc1)C(N)=O)[C@@H](C)O)C(C)C) [Compound 19]
5 | 2.57 | Isovaleryl-APEK([AEEA-AEEA-γGlu-C18 diacid])PEEDAAPEELQRYYVELRHYYNWLTRQRY-NH2 (SMILES CC(C)CC(=O)N[C@@H](C)C(=O)N1CCC[C@H]1C(=O)N[C@@H](CCC(=O)O)C(=O)N[C@@H](CCCCNC(=O)COCCOCCNC(=O)COCCOCCNC(=O)CC[C@H](NC(=O)CCCCCCCCCCCCCCCCC(=O)O)C(=O)O)C(=O)N1CCC[C@H]1C(=O)N[C@@H](CCC(=O)O)C(=O)N[C@@H](CCC(=O)O)C(=O)N[C@@H](CC(=O)O)C(=O)N[C@@H](C)C(=O)N[C@@H](C)C(=O)N1CCC[C@H]1C(=O)N[C@@H](CCC(=O)O)C(=O)N[C@@H](CCC(=O)O)C(=O)N[C@@H](CC(C)C)C(=O)N[C@@H](CCC(N)=O)C(=O)N[C@@H](CCCNC(=N)N)C(=O)N[C@@H](Cc1ccc(O)cc1)C(=O)N[C@@H](Cc1ccc(O)cc1)C(=O)N[C@H](C(=O)N[C@@H](CCC(=O)O)C(=O)N[C@@H](CC(C)C)C(=O)N[C@@H](CCCNC(=N)N)C(=O)N[C@@H](Cc1c[nH]cn1)C(=O)N[C@@H](Cc1ccc(O)cc1)C(=O)N[C@@H](Cc1ccc(O)cc1)C(=O)N[C@@H](CC(N)=O)C(=O)N[C@@H](Cc1c[nH]c2ccccc12)C(=O)N[C@@H](CC(C)C)C(=O)N[C@H](C(=O)N[C@@H](CCCNC(=N)N)C(=O)N[C@@H](CCC(N)=O)C(=O)N[C@@H](CCCNC(=N)N)C(=O)N[C@@H](Cc1ccc(O)cc1)C(N)=O)[C@@H](C)O)C(C)C) [Compound 20]
6 | 0.93 | Isovaleryl-APEK([AEEA-AEEA-γGlu-C18 diacid])PEEDASPAELQRYYVSLRHYYNWLTRQRY-NH2 (SMILES CC(C)CC(=O)N[C@@H](C)C(=O)N1CCC[C@H]1C(=O)N[C@@H](CCC(=O)O)C(=O)N[C@@H](CCCCNC(=O)COCCOCCNC(=O)COCCOCCNC(=O)CC[C@H](NC(=O)CCCCCCCCCCCCCCCCC(=O)O)C(=O)O)C(=O)N1CCC[C@H]1C(=O)N[C@@H](CCC(=O)O)C(=O)N[C@@H](CCC(=O)O)C(=O)N[C@@H](CC(=O)O)C(=O)N[C@@H](C)C(=O)N[C@@H](CO)C(=O)N1CCC[C@H]1C(=O)N[C@@H](C)C(=O)N[C@@H](CCC(=O)O)C(=O)N[C@@H](CC(C)C)C(=O)N[C@@H](CCC(N)=O)C(=O)N[C@@H](CCCNC(=N)N)C(=O)N[C@@H](Cc1ccc(O)cc1)C(=O)N[C@@H](Cc1ccc(O)cc1)C(=O)N[C@H](C(=O)N[C@@H](CO)C(=O)N[C@@H](CC(C)C)C(=O)N[C@@H](CCCNC(=N)N)C(=O)N[C@@H](Cc1c[nH]cn1)C(=O)N[C@@H](Cc1ccc(O)cc1)C(=O)N[C@@H](Cc1ccc(O)cc1)C(=O)N[C@@H](CC(N)=O)C(=O)N[C@@H](Cc1c[nH]c2ccccc12)C(=O)N[C@@H](CC(C)C)C(=O)N[C@H](C(=O)N[C@@H](CCCNC(=N)N)C(=O)N[C@@H](CCC(N)=O)C(=O)N[C@@H](CCCNC(=N)N)C(=O)N[C@@H](Cc1ccc(O)cc1)C(N)=O)[C@@H](C)O)C(C)C) [Compound 17]

Source: patent US20210139548A1 (published 2021)
